Publication PMC7784082 (Cell metabolism, 2019)

Biological target: TAZ, mouse, expressed from plasmid (HA-TAZ WT) (mouse, UniProt Q9EPK5 1-395)
Assay: co-IP

Sequence of TAZ, mouse, expressed from plasmid (HA-TAZ WT) (Q9EPK5 whole entry): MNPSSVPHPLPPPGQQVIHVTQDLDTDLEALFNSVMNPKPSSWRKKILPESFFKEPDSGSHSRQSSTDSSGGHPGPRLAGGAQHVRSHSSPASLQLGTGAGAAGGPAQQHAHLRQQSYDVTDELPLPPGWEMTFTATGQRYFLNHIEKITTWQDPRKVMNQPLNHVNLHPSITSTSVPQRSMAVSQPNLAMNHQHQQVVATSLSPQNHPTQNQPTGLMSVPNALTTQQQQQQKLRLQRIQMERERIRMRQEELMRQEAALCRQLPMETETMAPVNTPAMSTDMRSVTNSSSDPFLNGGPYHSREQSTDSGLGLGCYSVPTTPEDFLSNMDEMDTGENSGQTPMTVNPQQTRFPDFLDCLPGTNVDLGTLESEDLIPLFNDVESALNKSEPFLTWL

- fold change of association against WT PPARγ: ~2 fold
B1: PPARγ S112D (phospho-mimic mutant of mouse PPARgamma 2) (natural protein, UniProt P37238-1 1-505, looked up)
chain: MGETLGDSPVDPEHGAFADALPMSTSQEITMVDTEMPFWPTNFGISSVDLSVMEDHSHSFDIKPFTTVDFSSISAPHYEDIPFTRADPMVADYKYDLKLQEYQSAIKVEPADPPYYSEKTQLYNRPHEEPSNSLMAIECRVCGDKASGFHYGVHACEGCKGFFRRTIRLKLIYDRCDLNCRIHKKSRNKCQYCRFQKCLAVGMSHNAIRFGRMPQAEKEKLLAEISSDIDQLNPESADLRALAKHLYDSYIKSFPLTKAKARAILTGKTTDKSPFVIYDMNSLMMGEDKIKFKHITPLQEQSKEVAIRIFQGCQFRSVEAVQEITEYAKNIPGFINLDLNDQVTLLKYGVHEIIYTMLASLMNKDGVLISEGQGFMTREFLKNLRKPFGDFMEPKFEFAVKFNALELDDSDLAIFIAVIILSGDRPGLLNVKPIEDIQDNLLQALELQLKLNHPESSQLFAKVLQKMTDLRQIVTEHVQLLHVIKKTETDMSLHPLLQEIYKDLY
